Measured values published in patent publication US20040127421.

Assays:
[1] = tested on: 10-mer (SEQ ID NO:13) NYNFFPRKPK
[2] = tested on: 9-mer (SEQ ID NO:12) PRCGNPDVA
[3] = tested on: 19-mer (SEQ ID NO:11) PRCGNPDVANYNFFPRKPK

Active MMP-9 enzyme, sequence (chain, as listed by the source): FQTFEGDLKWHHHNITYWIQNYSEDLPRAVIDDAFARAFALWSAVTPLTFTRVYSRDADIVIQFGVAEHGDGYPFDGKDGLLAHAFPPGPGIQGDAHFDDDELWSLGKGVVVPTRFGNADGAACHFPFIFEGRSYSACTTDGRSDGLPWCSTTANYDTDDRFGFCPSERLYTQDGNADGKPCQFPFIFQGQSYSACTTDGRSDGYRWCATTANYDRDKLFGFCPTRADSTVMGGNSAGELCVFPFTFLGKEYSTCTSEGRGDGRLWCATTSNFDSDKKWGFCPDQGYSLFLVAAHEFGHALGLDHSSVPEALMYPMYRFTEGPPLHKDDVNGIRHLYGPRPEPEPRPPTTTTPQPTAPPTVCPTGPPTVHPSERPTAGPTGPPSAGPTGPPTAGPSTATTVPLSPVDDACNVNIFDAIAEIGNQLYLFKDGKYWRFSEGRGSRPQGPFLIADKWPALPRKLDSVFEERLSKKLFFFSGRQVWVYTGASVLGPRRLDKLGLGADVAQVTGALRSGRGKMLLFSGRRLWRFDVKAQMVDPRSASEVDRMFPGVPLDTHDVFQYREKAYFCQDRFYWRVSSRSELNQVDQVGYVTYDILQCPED

Substance: Active MMP-9 enzyme
- extended time course of MMP-9 catalyzed hydrolysis of collagen [1]: The 10-mer is less effective at preventing the destruction of collagen at long time points (FIG. 9) than is the 9-mer (FIG. 10)
- extended time course of MMP-9 catalyzed hydrolysis of collagen [2]: The 10-mer is less effective at preventing the destruction of collagen at long time points (FIG. 9) than is the 9-mer (FIG. 10)
- extended time course of MMP-9 catalyzed hydrolysis of collagen [3]: the 19-mer effectively inhibits the MMP-9 catalyzed hydrolysis of collagen to beyond 1000 minutes
